The record followed here is publication PMC3763426, “Genetic and structural validation of Aspergillus fumigatus N-acetylphosphoglucosamine mutase as an antifungal target” (Bioscience Reports, 2013).

The term IC50 denotes the point on the concentration scale where inhibition reaches its midpoint. Read a high IC50 as a need for much substance. The term Ki denotes the dissociation constant of the complex between target and ligand, obtained from inhibition or displacement. As usually defined, the Km is the substrate concentration at which the rate is half of its maximum. The term kcat denotes the number of substrate molecules converted per active site and unit of time at saturation. In general, kcat/Km refers to the turnover number divided by the Michaelis constant.

Data set [1] addresses T1, AfAGM1 (A. fumigatus N-acetylphosphoglucosamine mutase) (Aspergillus fumigatus, UniProt Q4WJF0, DEL85-101).
T1 construct: gene AFUA_1G06210; deletion of VSSYGTFDGGMKGEFAD, residues 85–101 of XP_750370 (likely alternative splicing); GST tag cleaved; pSer69
Nature of the data set: direct HPAEC-PAD enzyme assay, […] Glc-1P. Type of data set: biochemical.

Data set [2] addresses T1, AfAGM1 (A. fumigatus N-acetylphosphoglucosamine mutase). Nature of the data set: enzyme inhibition kinetics, Lineweaver–Burk plot. Type of data set: biochemical.
Data set [3] concerns O=P(O)(O)O[C@H]1O[C@H](CO)[C@@H](O)[C@H](O)[C@H]1O. Nature of the data set: purified protein. The following applies: Mg2+.
In data set [4] the test system is CC(=O)N[C@H]1C(O)O[C@H](COP(=O)(O)O)[C@@H](O)[C@@H]1O. Nature of the data set: purified protein. The following applies: Mg2+.

T1 sequence (Q4WJF0 entry or part of it DEL85-101): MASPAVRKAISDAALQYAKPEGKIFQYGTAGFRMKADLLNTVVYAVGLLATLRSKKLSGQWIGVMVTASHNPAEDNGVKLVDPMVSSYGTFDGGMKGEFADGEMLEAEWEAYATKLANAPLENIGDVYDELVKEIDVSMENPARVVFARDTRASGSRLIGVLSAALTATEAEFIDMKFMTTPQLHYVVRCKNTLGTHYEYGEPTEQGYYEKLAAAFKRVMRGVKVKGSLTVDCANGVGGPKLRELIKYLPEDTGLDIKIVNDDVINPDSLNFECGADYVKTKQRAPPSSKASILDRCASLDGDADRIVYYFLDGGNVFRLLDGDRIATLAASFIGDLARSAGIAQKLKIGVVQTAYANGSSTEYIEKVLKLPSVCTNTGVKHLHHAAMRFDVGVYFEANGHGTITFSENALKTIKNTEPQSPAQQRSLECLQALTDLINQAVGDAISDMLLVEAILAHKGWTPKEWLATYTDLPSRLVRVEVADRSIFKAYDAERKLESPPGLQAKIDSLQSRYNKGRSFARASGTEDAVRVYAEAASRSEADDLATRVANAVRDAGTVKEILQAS

In the case of `NC(Cc1cc(O)c(O)cc1O)C(=O)O` (racemic) [compound 3, 6-hydroxy-DL-DOPA], the IC50 in data set [1] was 58 ± 4 µM.

Consider `Nc1ccc(O)c2c1C(=O)c1c(O)ccc(N)c1C2=O` [compound 1, 1,5-diamino-4,8-dihydroxyanthraquinone], for which the Ki in data set [2] was found to be 300 ± 13 µM.

`Cc1nc(/N=N/c2ccc(C(=O)O)cc2)c(COP(=O)(O)O)c(C=O)c1O` [compound 4, tri-sodium 4-[(2z)-2-[4-formyl-6-metyl-5-oxo-3-(phosphonatooxymetyl)-pyridin-2-ylidene] hydrazinyl] benzoate]: in data set [1], the IC50 turned out to be 7.1 ± 0.2 µM.

For the compound “AfAGM1 (A. fumigatus N-acetylphosphoglucosamine mutase) (Aspergillus fumigatus Af293; DEL85-101)”, in data set [3], the Km stood at 1200 ± 100 µM, the turnover number (kcat) turned out to be 37.6 s⁻¹ and the catalytic efficiency (kcat/Km) was found to be 31300 M⁻¹ s⁻¹. In addition, in data set [4], the Km came to 25 ± 8 µM, the kcat came to 0.21 s⁻¹ and the kcat/Km was 8400 M⁻¹ s⁻¹.
